Measured values as given in the RNAGym collection of RNA variant scans (doi:10.7554/elife.90254).

B1: LINE1-mini (parent)
chain: GGCAGAGCUCAACACAGCGUGGCAAAGUGGCUGUGGCUAGACUGCC

Variants of: B1
Assay: self-cleavage, relative activity (ratio to wild type); higher = more cleavage; in vitro, sequencing; the parent is a self-cleaving ribozyme

| Variant | self-cleavage |
| --- | --- |
| GGCAGAGCUCAACACAGCGUCGCAAGGUGGCUGUGGCUAGACUGCC [G21C A26G] | 0.35 |
| GGCAGAGCUAAACACAGCGUGGCAAAGUGGCUGUGCCUAGACUGCC [C10A G36C] | 0.02 |
| GGCUGAGCUCGACACAGCGUGGCAAAGUGGCUGUGGCUAGACUGCC [A4U A11G] | 0.04 |
| GGCAGAGGUCAACGCAGCGUGGCAAAGUGGCUGUGGCUAGACUGCC [C8G A14G] | 0.08 |
| GGCAGAGCUCAACCCAGCGUGCCAAAGUGGCUGUGGCUAGACUGCC [A14C G22C] | 0.1 |
| CACAGAGCUCAACACAGCGUGGCAAAGUGGCUGUGGCUAGACUGCC [G1C G2A] | 0.13 |
| GGCAGAGCUCAUCACAGCGUGGUAAAGUGGCUGUGGCUAGACUGCC [A12U C23U] | 0.34 |
| GGCAGAGCACAACACAGCGUGGCAAAGUGGCUGAGGCUAGACUGCC [U9A U34A] | 0.21 |
| GGCAUAUCUCAACACAGCGUGGCAAAGUGGCUGUGGCUAGACUGCC [G5U G7U] | 0.13 |
| GGAAGAGCUCAACACAGCGUGGCAAAGAGGCUGUGGCUAGACUGCC [C3A U28A] | 0.32 |
| GGCAGGGCGCAACACAGCGUGGCAAAGUGGCUGUGGCUAGACUGCC [A6G U9G] | 0.17 |
| GGCAGAGCUCAACACAGCGUGGCAAAGUGGCAGUAGCUAGACUGCC [U32A G35A] | 0.04 |
| GGCAGAGGUCAACACAGCGUGGCAAAGUGGCUGUGGGUAGACUGCC [C8G C37G] | 0.09 |
| GGCAGAGCUCAACACAGCGUGGCAACGUGGCUGUGGCUAGCCUGCC [A26C A41C] | 0.04 |
| GGCAGAGCUAAAAACAGCGUGGCAAAGUGGCUGUGGCUAGACUGCC [C10A C13A] | 0.03 |
| GGCAGAGCUCAACACAGCGUGGCAAAGUGGCGGUGGCGAGACUGCC [U32G U38G] | 0.03 |
| GGCAGAGCUCAACACAGAGUGGCAAAUUGGCUGUGGCUAGACUGCC [C18A G27U] | 1.04 |
| GGCAGAGCUCAACACAGCGGGGCAAAGUGGCUGUGGCUAGACAGCC [U20G U43A] | 0.03 |
| GGCCGAGCUCAACACAGCGUGGCAAAGUGGCUGUGGCCAGACUGCC [A4C U38C] | 0.12 |

| Variant | self-cleavage |
| --- | --- |
| GGCAGAGCUCAACACAGCGUGACAAAGUGGCUGAGGCUAGACUGCC [G22A U34A] | 0.2 |
| GGCAGAGCUCAACACAGCGUGGCAAAGUGGCUGUGGCGAGAAUGCC [U38G C42A] | 0.03 |
| GGCAGAUCUCAACACAGCGUGGCAAAGUGGCUGUAGCUAGACUGCC [G7U G35A] | 0.1 |
| GGCAGAGCUCAACACCGCGUGGCAAAGUGGCCGUGGCUAGACUGCC [A16C U32C] | 0.09 |
| GCCAGAGCUCAACACAGCGUGGCAAAGUGGCUCUGGCUAGACUGCC [G2C G33C] | 0.02 |
| GGCAGAGCUCAACACAGCGUGGCAAAGUGGCUGAGGCUAGACAGCC [U34A U43A] | 0.06 |
| GGCAGAGCUCAACACAGCGUGGCAAAGUGGCUGUGUCUAGACUUCC [G36U G44U] | 0.09 |
| GGCAGAACUCAACACAGCGUGGCCAAGUGGCUGUGGCUAGACUGCC [G7A A24C] | 0.12 |
| GCCAGAGCUCAACACAGCGUGGCUAAGUGGCUGUGGCUAGACUGCC [G2C A24U] | 0.15 |
| GGCAGAGCUCAACACAGCGUGGCUAAGUGGCUGUAGCUAGACUGCC [A24U G35A] | 0.12 |
| GGCAGAGCGCAACACAGCGUGGGAAAGUGGCUGUGGCUAGACUGCC [U9G C23G] | 0.15 |
| GGCAGAGCUCAACAAAGCGUGGCAAAGUGCCUGUGGCUAGACUGCC [C15A G30C] | 0.05 |
| GGCAGAGCUCACCACAGCGUGGCAAAGUGCCUGUGGCUAGACUGCC [A12C G30C] | 0.04 |
| GGCAGAGCUCAACCCAGCGUGGCAAAGUGGCUGUGGCUAAACUGCC [A14C G40A] | 0.09 |
| GGCAGAGCUCAACACAGCGUGGCAAAGUGGCUGUGGCGAGAGUGCC [U38G C42G] | 0.02 |
| GGAAGAGUUCAACACAGCGUGGCAAAGUGGCUGUGGCUAGACUGCC [C3A C8U] | 0.69 |
| GGCACAGCUCAACACAGCGUGGCAAAGUGCCUGUGGCUAGACUGCC [G5C G30C] | 0.07 |
| GGCAGAGCUCAACACCGCGUGGCAAAGGGGCUGUGGCUAGACUGCC [A16C U28G] | 0.07 |
| GGCAGAGCUAAACACAGCGGGGCAAAGUGGCUGUGGCUAGACUGCC [C10A U20G] | 0.03 |

| Variant | self-cleavage |
| --- | --- |
| GGCAGAGCUCAAGACAGUGUGGCAAAGUGGCUGUGGCUAGACUGCC [C13G C18U] | 0.09 |
| GGCAGAGCUCAACACAGCGUGGCAAAGUGGCCGUGGCUAGACUGGC [U32C C45G] | 0.03 |
| GGCAGAGCUCAACACAGCGUGGCAAAGUGGCUUUGGCUAGUCUGCC [G33U A41U] | 0.09 |
| GGCAGAGCUCAACACAGCUUGGCAAACUGGCUGUGGCUAGACUGCC [G19U G27C] | 0.75 |
| GGCAGAGCUCAACACAGCGUGGCAAAGUGGCUGUGGCUUGACUGAC [A39U C45A] | 0.18 |
| GUCAGAGCUCAACACAGCGUGGCGAAGUGGCUGUGGCUAGACUGCC [G2U A24G] | 0.06 |
| GGCAGAGCUCAACACAGCGUGGCAAAGUGGCCGUGGCUAAACUGCC [U32C G40A] | 0.06 |
| GGCAGAGCUCAACACAGCGGGGCAAAGUGGCUGUGGCUAGACUACC [U20G G44A] | 0.25 |
| GGCAGAGCUCAACACAGCGUGGCAACGUGGCUGGGGCUAGACUGCC [A26C U34G] | 0.32 |
| GGCAGAGCUCAACACAGCGUGGCAAAGAGGCUAUGGCUAGACUGCC [U28A G33A] | 0.06 |
| GGCAGAGCUAAACAUAGCGUGGCAAAGUGGCUGUGGCUAGACUGCC [C10A C15U] | 0.08 |
| GGUAGAGCUCAACACAGCGUGGCAAAGUGGCUGUUGCUAGACUGCC [C3U G35U] | 0.18 |
| GGCAGAGCUUAACACAGCGUGGCAAAGUGGCUGCGGCUAGACUGCC [C10U U34C] | 0.08 |
| GGCAGAGCUCAACACAGCGUGGCACAGUGGCUGUGGCUAGAAUGCC [A25C C42A] | 0.11 |
| GGCAGAGCUCUACACAGCGUGGCAAAGUGGCUGUGGCUAGACUGCA [A11U C46A] | 0.09 |
| GGCAGAGCUCAACACAACGUUGCAAAGUGGCUGUGGCUAGACUGCC [G17A G21U] | 0.83 |
| GGCAGAGCUCAACGCAGCGUGGCAAAUUGGCUGUGGCUAGACUGCC [A14G G27U] | 0.42 |
| GGCAGAGCUCAACACAGCGUGGCAAAUUGGCUGUGGGUAGACUGCC [G27U C37G] | 0.03 |
